Experimental findings from US6716813B2, “Use of antimicrobial proteins and peptides for the treatment of otitis media and paranasal sinusitis” (priority 2000, dated 2004) are described below.

For one assay, the system named is NTHi strain12. The format is cell-based, nontypeable Haemophilus influenzae. The note with it: 100 mM NaCl in gel. As for the experimental part:
(§1) The bacteria used in the following examples were cultured as follows: Stocks of NTHi12 and M. catarrhalis […] (generous gift of Dr. Xin-Xing Gu) were maintained at -80° C. For experiments, the bacteria were plated on chocolate agar and incubated overnight at 37° C. in 5% CO2. A single colony was then picked and transferred to 10 ml of brain heart infusion (BHI, Becton Dickinson, Cockeysville, Md.), supplemented with hemin (10 μg/ml, Sigma, St. Louis, Mo.) and NAD (10 μg/ml, Sigma, St. Louis, Mo.), and allowed to grow overnight. In the morning, 1/10 volume of the overnight culture was transferred to fresh medium and incubated for 3-hours. The subculture was then washed twice with 10 mM sodium phosphate and the O.D. at 620 nm was determined. For the S. pneumoniae serotypes 3 and 6B (generous gift of Dr. Xin-Xing Gu), a 50 μl aliquot of the -80° C. stock was thawed on ice, added to 10 ml of Todd-Hewitt broth (THB, Becton Dickinson, Cockeysville, Md.) and cultured overnight. […] The subculture was then washed twice with 10 mM sodium phosphate and the O.D. at 620 nm was determined. […] The diameter of the zones of inhibition produced by each of the antimicrobial molecules against the OM pathogens (NTHi, M. catarrhalis and S. pneumoniae) was then measured in three separate experiments and the average and standard deviation were calculated. […]

The test system of another assay is S. pneumoniae serotype 3. The format is cell-based, Streptococcus pneumoniae. As for the experimental part: (§2) The bacteria used in the following examples were cultured as follows: Stocks of NTHi12 and M. catarrhalis […] (generous gift of Dr. Xin-Xing Gu) were maintained at -80° C. For experiments, the bacteria were plated on chocolate agar and incubated overnight at 37° C. in 5% CO2. A single colony was then picked and transferred to 10 ml of brain heart infusion (BHI, Becton Dickinson, Cockeysville, Md.), supplemented with hemin (10 μg/ml, Sigma, St. Louis, Mo.) and NAD (10 μg/ml, Sigma, St. Louis, Mo.), and allowed to grow overnight. In the morning, 1/10 volume of the overnight culture was transferred to fresh medium and incubated for 3-hours. The subculture was then washed twice with 10 mM sodium phosphate and the O.D. at 620 nm was determined. For the S. pneumoniae serotypes 3 and 6B (generous gift of Dr. Xin-Xing Gu), a 50 μl aliquot of the -80° C. stock was thawed on ice, added to 10 ml of Todd-Hewitt broth (THB, Becton Dickinson, Cockeysville, Md.) and cultured overnight. One tenth of the volume of the overnight culture was then transferred to fresh medium and incubated for 3-hours. The subculture was then washed twice with 10 mM sodium phosphate and the O.D. at 620 nm was determined. The radial assay method of […] and coworkers was used, with minor modifications ([…] et al., 1991). The subcultured bacteria (4×10^6 CFU/10 ml underlay gel) were mixed with melted underlay gel at 42° C. (0.1×culture broth-BHI for NTHi and Moraxella and THB for S. pneumoniae-10 mM sodium phosphate, 0.8% low electroendosmosis (EEO)-type agarose) and poured into 8 cm×8 cm square petri plates. The gel was allowed to solidify in the petri plates and wells were punched out with a calibrated 200 μl micropipette tip, cut off at the 50 μl mark (approximately 3 mm). The antimicrobial peptides and proteins were dissolved in 0.01% acetic acid and 4 μl was added to each well. The plates were then incubated for 3 hours at 37° C. in the 5% CO2 incubator. They were next overlaid with the overlay gel (0.5×culture broth, 10 mM sodium phosphate, 0.8% low EEO-type agarose) and covered. The plates were then allowed to incubate overnight at 37° C. in a 5% CO2. The diameter of the zones of inhibition produced by each of the antimicrobial molecules against the OM pathogens (NTHi, M. catarrhalis and S. pneumoniae) was then measured in three separate experiments and the average and standard deviation were calculated. Physiologically, salt concentrations vary depending on the site. However, typically they can be as high as 150 mM. Thus, the salt sensitivity of the antimicrobial molecules was tested. NaCl was added to the gel in Example 2 to obtain a final concentration of 100 mM.

For assay [1], the system named is S. pneumoniae serotype 6B. The assay is classed as cell-based, Streptococcus pneumoniae. As to the method: as §2
Assay [2] relates to M. catarrhalis strain 035E. The assay is classed as cell-based, Moraxella catarrhalis. The note with it: 100 mM NaCl in gel. As to the method: as §1

B1: lactoferrin (protein, UniProt P02788 20-710, looked up)
Lactotransferrin: GRRRSVQWCAVSQPEATKCFQWQRNMRKVRGPPVSCIKRDSPIQCIQAIAENRADAVTLDGGFIYEAGLAPYKLRPVAAEVYGTERQPRTHYYAVAVVKKGGSFQLNELQGLKSCHTGLRRTAGWNVPIGTLRPFLNWTGPPEPIEAAVARFFSASCVPGADKGQFPNLCRLCAGTGENKCAFSSQEPYFSYSGAFKCLRDGAGDVAFIRESTVFEDLSDEAERDEYELLCPDNTRKPVDKFKDCHLARVPSHAVVARSVNGKEDAIWNLLRQAQEKFGKDKSPKFQLFGSPSGQKDLLFKDSAIGFSRVPPRIDSGLYLGSGYFTAIQNLRKSEEEVAARRARVVWCAVGEQELRKCNQWSGLSEGSVTCSSASTTEDCIALVLKGEADAMSLDGGYVYTAGKCGLVPVLAENYKSQQSSDPDPNCVDRPVEGYLAVAVVRRSDTSLTWNSVKGKKSCHTAVDRTAGWNIPMGLLFNQTGSCKFDEYFSQSCAPGSDPRSNLCALCIGDEQGENKCVPNSNERYYGYTGAFRCLAENAGDVAFVKDVTVLQNTDGNNNEAWAKDLKLADFALLCLDGKRKPVTEARSCHLAMAPNHAVVSRMDKVERLKQVLLHQQAKFGRNGSDCPDKFCLFQSETKNLLFNDNTECLARLHGKTTYEKYLGPQYVAGITNLKKCSTSPLLEACEFLRK
For B1, in the assay on NTHi strain12, the “effect of salt on the growth inhibitory effect against NTHi” value is “completely blocked”. In addition, the “effect on growth of S. pneumoniae serotype 3” value with S. pneumoniae serotype 3 (10 μg, equivalent to 2.5 mg/ml) is recorded as “enhancement of the growth”. For the same molecule, the “effect of salt on the growth inhibitory effect against S. pneumoniae serotype 3” value with S. pneumoniae serotype 3 (100 mM NaCl in gel) is given as “completely blocked”. In addition, the “effect of salt on the growth inhibitory effect against S. pneumoniae serotype 6B” value in assay [1] (100 mM NaCl in gel) is “completely blocked”. The “effect on growth of S. pneumoniae serotype 6B” value in assay [1] (10 and 40 μg, equivalent to 2.5 and 10 mg/ml) is recorded as “enhancement of the growth”. Further, in assay [2], the “effect of salt on the growth inhibitory effect against M. catarrhalis” value was “completely blocked”.
